Measurements published in US20240018237A1 (SICHUAN KELUN BIOTECH BIOPHARMACEUTICAL, published 2024).

Legend:
[1] = target: human ROR1 (full-length, on the cell surface) (human) (UniProt Q01973); test: flow cytometry, A549 cells; average of two measurements
[2] = target: human ROR1 (full-length, on the cell surface) (human) (UniProt Q01973); test: flow cytometry on Ba/F3-ROR1 cells, MFI against antibody concentration
[3] = target: human ROR1 (full-length, on the cell surface) (human) (UniProt Q01973); test: flow cytometry on A549 cells, MFI against antibody concentration
[4] = target: human ROR1 (full-length, on the cell surface) (human) (UniProt Q01973); test: flow cytometry, HT-29 cells (Table 5-1A)
[5] = target: human ROR1 (full-length, on the cell surface) (human) (UniProt Q01973); test: flow cytometry, A549 cells (Table 5-3)
[6] = target: human ROR1 (full-length, on the cell surface) (human) (UniProt Q01973); test: flow cytometry, A549 cells (Table 5-2)
[7] = target: human ROR1 (full-length, on the cell surface) (human) (UniProt Q01973); test: flow cytometry, HT-29 cells (Table 5-1B)
[8] = target: human ROR1 (full-length, on the cell surface) (human) (UniProt Q01973); test: cell-based or functional assay
[9] = target: human ROR1 (full-length, on the cell surface) (human) (UniProt Q01973); test: flow cytometry, Jeko-1 cells (Table 5-2)
[10] = target: human ROR1 (full-length, on the cell surface) (human) (UniProt Q01973); test: flow cytometry, Ba/F3-ROR1 cells (Table 5-3)
[11] = target: human ROR1 (full-length, on the cell surface) (human) (UniProt Q01973); test: flow cytometry, Jeko-1 cells; average of two measurements
[12] = target: human ROR1 (full-length, on the cell surface) (human) (UniProt Q01973); test: flow cytometry, Jeko-1 cells (Table 5-1A)
[13] = target: human ROR1 (full-length, on the cell surface) (human) (UniProt Q01973); test: flow cytometry on Ba/F3-ROR1 cells, MFI against antibody concentration; remark: listed apart in the source
[14] = target: human ROR1 (full-length, on the cell surface) (human) (UniProt Q01973); test: flow cytometry, HT-29 cells (Table 5-3)
[15] = target: human ROR1 (full-length, on the cell surface) (human) (UniProt Q01973); test: flow cytometry, Ba/F3-ROR1 cells; average of two measurements
[16] = target: human ROR1 (full-length, on the cell surface) (human) (UniProt Q01973); test: flow cytometry, Jeko-1 cells (Table 5-3)
[17] = target: human ROR1 (full-length, on the cell surface) (human) (UniProt Q01973); test: flow cytometry, Ba/F3-ROR1 cells (Table 5-2)
[18] = target: human ROR1 (full-length, on the cell surface) (human) (UniProt Q01973); test: flow cytometry, Jeko-1 cells (Table 5-1B)
[19] = target: human ROR1 (full-length, on the cell surface) (human) (UniProt Q01973); test: flow cytometry, HT-29 cells (Table 5-2)
[20] = target: human ROR1 (full-length, on the cell surface) (human) (UniProt Q01973); test: flow cytometry, Ba/F3-ROR1 cells (Table 5-1B)
[21] = target: human ROR1 (full-length, on the cell surface) (human) (UniProt Q01973); test: flow cytometry, HT-29 cells; average of two measurements
[22] = target: human ROR1 (full-length, on the cell surface) (human) (UniProt Q01973); test: flow cytometry, Ba/F3-ROR1 cells (Table 5-1A)
[23] = target: human ROR1 (full-length, on the cell surface) (human) (UniProt Q01973); test: flow cytometry, A549 cells (Table 5-1A)
[24] = target: human ROR1 ECD protein (human) (UniProt Q01973); test: BLI (Octet), antibody on AHC sensor, ROR1 ECD in solution; average of three determinations
[25] = target: human ROR1 ECD protein (human) (UniProt Q01973); test: BLI (Octet), antibody on AHC sensor, ROR1 ECD in solution; average of two measurements
[26] = target: human ROR1 (full-length, on the cell surface) (human) (UniProt Q01973); test: flow cytometry, A549 cells (Table 5-1B)

Sequence of human ROR1 (full-length, on the cell surface) (human) (Q01973 30-937): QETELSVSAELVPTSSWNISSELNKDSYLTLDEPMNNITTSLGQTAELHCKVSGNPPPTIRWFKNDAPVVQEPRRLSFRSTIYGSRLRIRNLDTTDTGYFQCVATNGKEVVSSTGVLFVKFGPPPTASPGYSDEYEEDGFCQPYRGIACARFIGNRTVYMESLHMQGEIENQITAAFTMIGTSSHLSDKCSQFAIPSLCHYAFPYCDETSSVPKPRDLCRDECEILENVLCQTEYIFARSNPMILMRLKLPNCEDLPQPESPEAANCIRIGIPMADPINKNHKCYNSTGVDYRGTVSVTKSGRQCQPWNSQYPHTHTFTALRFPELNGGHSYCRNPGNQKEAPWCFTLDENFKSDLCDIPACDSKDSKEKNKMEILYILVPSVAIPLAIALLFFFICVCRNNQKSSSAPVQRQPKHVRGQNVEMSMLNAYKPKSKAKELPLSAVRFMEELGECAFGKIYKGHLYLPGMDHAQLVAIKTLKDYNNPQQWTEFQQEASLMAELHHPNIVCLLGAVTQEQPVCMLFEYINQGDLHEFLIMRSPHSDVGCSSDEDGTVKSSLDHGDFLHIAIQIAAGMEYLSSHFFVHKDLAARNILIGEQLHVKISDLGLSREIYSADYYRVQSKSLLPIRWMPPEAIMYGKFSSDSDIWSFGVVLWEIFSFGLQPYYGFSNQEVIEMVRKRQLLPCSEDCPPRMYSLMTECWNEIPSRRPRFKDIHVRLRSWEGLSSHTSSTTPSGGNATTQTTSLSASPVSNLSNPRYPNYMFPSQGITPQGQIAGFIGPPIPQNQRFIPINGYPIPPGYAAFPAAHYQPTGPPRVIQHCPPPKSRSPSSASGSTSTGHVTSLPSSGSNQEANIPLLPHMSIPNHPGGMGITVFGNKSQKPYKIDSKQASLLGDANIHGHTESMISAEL
Sequence of human ROR1 ECD protein (human) (Q01973 30-406): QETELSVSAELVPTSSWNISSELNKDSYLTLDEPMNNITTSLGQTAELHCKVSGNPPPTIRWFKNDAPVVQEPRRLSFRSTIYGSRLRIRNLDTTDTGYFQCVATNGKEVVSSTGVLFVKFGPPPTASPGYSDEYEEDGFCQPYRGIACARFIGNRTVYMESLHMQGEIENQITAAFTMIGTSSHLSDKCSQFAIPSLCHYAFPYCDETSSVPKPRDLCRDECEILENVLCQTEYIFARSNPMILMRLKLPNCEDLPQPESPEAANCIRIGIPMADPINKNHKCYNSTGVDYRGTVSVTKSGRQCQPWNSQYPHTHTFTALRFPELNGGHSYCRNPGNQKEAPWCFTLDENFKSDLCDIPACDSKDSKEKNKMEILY

- EC50 [1]: 0.277 nM
- EC50 (read off the curve) [2]: 0.07 µg/mL
- EC50 (read off the curve) [3]: 0.01 µg/mL
- EC50 [4]: 0.12 nM
- EC50 [5]: 0.21 nM
- EC50 [6]: 0.46 nM
- EC50 [7]: 0.2 nM
- EC50 [9]: 0.14 nM
- EC50 [10]: 1.07 nM
- EC50 [11]: 0.447 nM
- EC50 [12]: 0.22 nM
- EC50 (read off the curve) [13]: 0.05 µg/mL
- EC50 [14]: 0.37 nM
- EC50 [15]: 0.44 nM
- EC50 [16]: 0.06 nM
- EC50 [17]: 0.31 nM
- EC50 [18]: 0.36 nM
- EC50 [19]: 0.21 nM
- EC50 [20]: 0.3 nM
- EC50 [21]: 0.267 nM
- EC50 [22]: 0.62 nM
- EC50 [23]: 0.41 nM
- Kd [24]: 8.73 nM
- koff [24]: 0.0112 s⁻¹
- kon [24]: 1.26e+06 M⁻¹ s⁻¹
- Kd [25]: 15.8 nM
- koff [25]: 0.0137 s⁻¹
- kon [25]: 981000 M⁻¹ s⁻¹
- EC50 [26]: 0.16 nM
B1: anti-human ROR1 antibody UC961 (antibody, from another filing, V domains shown)
VH: QVQLQESGPGLVKPSQTLSLTCTVSGYAFTAYNIHWVRQAPGQGLEWMGSFDPYDGGSSYNQKFKDRLTISKDTSKNQVVLTMTNMDPVDTATYYCARGWYYFDYWGHGTLVTVSS
VL: DIVMTQTPLSLPVTPGEPASISCRASKSISKYLAWYQQKPGQAPRLLIYSGSTLQSGIPPRFSGSGYGTDFTLTINNIESEDAAYYFCQQHDESPYTFGEGTKVEIK
- EC50 of ADCC killing of Ba/F3-ROR1 cells by NK92MI-mCD16a-hFceRI cells [8]: 0.33 nM
